Laboratory results published in the DeepSol protein solubility set.

Assay: soluble on expression in E. coli; label from the status in PepcDB or PDB records

Soluble on expression in E. coli, not soluble:
MIINKVKSLIKHGFNLAIDISADILLIFTETGRTYEYYKDQEAIYKRARKNRSLKDFKSLKVVVTTPNEETFLKLKNESKIIPLLMTYRNDDRSSMIKQAVTNLFANNIVKKGDIVVSILGIPKVTGGTDTISIFEVNEYPQILKYYDYISSIEKTKGKVINEVLNLCMELAVEGREGTPVGSIFVIGDSDRVLKMSSQLILNPFEGHESFIFDKQVKGTVKELSTIDGAFVIGEKGEVLCAGRYISCSGGNIELPLGLGARHHAAATISKYTGAIAITVSESGGVIRIFKNGEILSEIKPKKLSNTSEYSY
SLEECVCENYKLAVNCFVNNNRQCQCTSVGAQNTVICSKLAAKCLVMKAEMNGSKLGRRAKPEGALQNNDGLYDPDCDESGLFKAKQCNGTSTCWCVNTAGVRRTDKDTEITCSERVRTYWIIIELKHKAREKPYDSKSLRTALQKEITTRYQLDPKFITSILYENNVITIDLVQNSSQKTQNDVDIADVAYYFEKDVKGESLFHSKKMDLTVNGEQLDLDPGQTLIYYVDEKAPEFSEG
MGSDKIHHHHHHMRIQFGYVAMSMELANASPSKTMTATQFEKIEDHEAGLRKLERIAKTNLHNCLRLLKHNLAYQISFFRLSSKLVPLVNHPLTEGWKYELAIAEELQAVGEFASEHQMRIDFHPDHFVVLNSEAKEITRRSLQTLLYHYKLLKGMEIDPRHRCVLHVGGKKKGVEAGLEQFIENTASIPKSLLSMIMLENDDKSYTIDDVLYLGEKLAIPVVLDIHHHDVLHRSKSLQETWQRIVATWEDSPLPVKIHLSSPLSGEDDPRHHDYINADRFIAFLHEIGADAVDHLHVMIEAKKKDLALFQLMKDLAEYDEITVVSKSAVEFNP
MGSDKIHHHHHHMSESLPPDAQRSPSYRAGVGLKAEHYRTILESQPDIGFFEVHAENYMGAGGPPHRFLSAIRESYPLSLHGVGLSIGADRPLDRDHLQRLKELIARYSPALFSEHLAWSSHDCGFLNDLLPVPYTAESLTRIVDHIDQVQEVLGRQMLLENPSTYLAFEESTYPEIDFIAAVVRRTGCGLLLDVNNVYVASINQQWDPFAYIDEYPLAAVQEIHLAGHAEETDEKARPLLIDSHDRHVADVVWDLYARAIRGTGPIPTLIEWDANIPDWPTLKAEAGRADAVVQAATQPASVDHVTIRSQFDMTRRRLKEAQTL
MANKKIDHREEAIELLKQDAKRILQLIKVQMDNLTLPQCPAYEEVLDTQMYGLSREINFATRLGLIEPEEGKKLISTLEKELSALHELSMSKK
MGSDKIHHHHHHMELNIPLVLQNKTPIYLQIYEYMKREISHGSLCAGTRLPSHRNLAMQLNVSRITVESAYQQLLAEGYVESKPKRGIFVAEVDIDVIQKKQQIVSNSANNKEKEQYDYDCSQGLIDQKAFPITNWKRALHETLFQYENELFAKEDPQGELVLREHISKYLYHARGVHSSPDQIIIGAGTQPLLWLLLQLLGSKKEYGIENPGFHRIPAMIQSSGLPVHPIPLDDKGIHISALRESGSNVAYVTPSHQFPLGIIMPLSRRLELLKWANDCKGYIVEDDYDGEFRYIGKPIPSLQGLDSNERVIYMGTFSKSFLPSLRMGYIVLPPHLLKTYKELGGMYKQTVSTMQQLTFATFIQSGDWERHINRSRTLYKRKHISLIKSITNEMGNNVHILGEQSGLHIVLHVHNGMNEQELIHAAAKQRIKLYPLSTYDSVHNVREESYVLLGFGSIPENRIETVVQLLKKAWFPK
SRLSIDLYPKIETSNIMVVTSYAGASASDIENNVTKVLENTLNGVSNLKHITSKSRENASVITLQFNEGVDIEVATNDVRDKLDAVSNFLPDDVNKPMIFKFGTDDIPITMLSVQAKESTMALSKILEDKVTNALARLDGVGAVSIMGTVKREIQVYCDPAKLEAYNLTVEAVSQIISAENKNVPAGLIDLGNKTSSIRIQGEFADARQLNQIVVASVGGRNVYLSDVARVEDTHAENEQESYNNNVRGAMIMINKQSGANSVAISRAVRGALPEIQASLPSDVELGTIFDTSDNIVNTINSLRD
MGAVNKDVFATGAGQVDPAKVLSPGLVYDATTEDYLKFIQGTGMDLGMEGLGTTQARDMNVPSFALGNLAGKIEVTRTLTALTPGTYRASVNVPGVNVKVTPSVLTFGAPGEKKTFKVQFENNNAALGKFAMGSLNWQGANKTVTSPIAVRPQSVIALEHHHHHH
MGSDKIHHHHHHMQGIAFQDAYPDDLSHCYGCGRNNEQGHQLKSYWRGEQTIAHFMPKPFHTAIPGFVYGGLIASLIDCHGTGSASAAAQRALEQAGEQLDEPPRFVTAALNIDYLAPTPMGVELELVGEIKEVKPRKVVVEIALSADGKLCARGHMVAVKMPETMAATSA
MGSDKIHHHHHHMKIDRSVIRSLALFAKMADDELDGLLTHATSRLVPPGEAIFEQGQSAAHFFLLIHGRLKVTQVTHDGQQIIVRMVHPGDLFGFARALQRSDYPGTATTAAESVILSWQTDLWPQFVEQNPHLAVSAMQTIGQRLEEAHTRIREMSTQEVERRVAHAVLRLSQQAGRKELDGIRIDFPISRQDIAEMTGTTLHTVSRILSSWESKGLVQGGRQKLLVCNLPGLAQLAEGETSQV
MGSDKIHHHHHHMQIAVSGGKGGTGKSTVAINLAVELAKKFKLVLADLDVEAPNDHLLLGVELQNEREVHQFMPKFNYSKCIKCRKCAEACEEHAIVTLRDGTPFLMPTLCSGCRACEIVCPVPGAIEEGSRLIGHTYETLTPYGFTLVTGKLREGEERSMPLVVAAKRRAKELKWDLLIVDTAAGTGNTVSKAIEGSQLLIAVTEPTPLGIHDTELILKLGELMRIETWIVINRSDLGDVKEVYRRAKKYNAEVIAEIPYSENIVKTYVAGKPIVTTDYPEAGIFREIAEKVYEFLR
MSQEQVEMIYAKTIEQILEMTGNATANFLPVLGVKSIEMAIGQMEEYLEMLKNLRVDYEKEPNLQSCMSPRLNDSMLIHRNRLARTSKSRLALYRTSPEIARFSRGSPDDIENENLSMSKIRSITEETSILDPTLCMDETTHQRGFLADVSDMNGTVRSRMPSFNFNHISPVPAEKTRRHSVLNVTTDFDVDLSSLCEPSQIEENSGQILFQNVLESALRTPNANNNTILLTDSEVTPVNISNLWNVKLRPGSNRKIDNGIRKEIQRQLACDSQL
MGSDKIHHHHHHMSTNLRRIQKIKGGSYIVSLPSDWVRENGLDVSREVEVFESSGIIKIRPKKDFNFERIIDFTDEETAEYLTSVYYMQGMTKITIQSKDVISRDVKDKIKMLQLELPGLNLKEESFNSITFEVDEEILKVQDSFFDFSNKALSILKDVTKIIETPREDMKQDLTSRCLALNSDYFKLIRSIALTVQRDDKYKLDVPVKDIILYAVASRDLGRFITHTRLLIGNIKQEDMKMRDQVLLLINTMENIITMFKTEDINMASRIRKNAHEILESVKSTSEANKELERMTGYALALMDDAVHKAVHL
MKEKYRHSLKARFFLKDNFLKSEPVFWFHACSYGEVKSLEPIIHALKEPILISVTTNTGFELAAQTYQHSKHIEVRYLPFETLLFAWKKNLKRLKTLVVTEAELWFNVFDTAQKLGAKTMLINARISVRSYPKYQRFSFFYALLFKRIDLILAQSKEDKKRLLNLGAKKVVDFLNIKRFSKPLEHHHHHH

Soluble on expression in E. coli, soluble:
MDGGFVRVCLLASGSKGNSLFVESDGTRVLIDAGLSAREIVRRLAVIEVEPADLDGLFISHEHVDHVRGVGVLARKYRLPVHVSYPTHHEVREGFGDAPVVEFESGYSFGFRDLLIDPFPITHDACDPVGFTIESKEGKVGIATDLGTATRLVADKLKRCRVLVLESNHDEEMLMGGPYPWHLKQRIKSRHGHLSNNDSAALLAEVLHPGLEGLFLAHLSEVNNDPAVAKEVAENLLVAQTTCSPRLIVGDQYRPSETLTLLEHHHHHH
MSLKVSAHNGNSDPSGAVQRRQSFRKSKTEDTVGTGNNGAANGGGGGAAANNNQMLENDLLSKYMGNQSPARQQVKKNLLNGTSGGGESVPAKPKTYDARCYVQNGSINFGKIITDEVLAADYDLVEAAKKMSDFAGTTALIAVIHRTKLIVANVGDSRGVMCDFKGNAIPLSFDHKPQQVREQKRIADAGGFIAFKGVWRVAGILATSRALGDYPLKEKNLVIANPDVLSFDLVDHRPQFLILASDGLWDTFTNEEAVAYVRERLDEPHFGAKSIALQSYSRGSVDNITVLVIVLKNGRYEIGSSSNEGHHHHHH
MGHHHHHHHHHHSSGHIEGRHIGSGVEAPEQLEEHGISVYATIPMSEWLDKRTRLRKKNLFSNQQRHRTKNIPFLAVDNPADSAVEAVRALRTSLHFAMMETENNILMITGATPDSGKTFVSSTLAAVIAQSDQKVLFIDADLRRGYSHNLFTVSNEHGLSEYLAGKDELNKVIQHFGKGGFDVITRGQVPPNPSELLMRDRMRQLLEWANDHYDLVIVDTPPMLAVSDAAVVGRSVGTSLLVARFGLNTAKEVSLSMQRLEQAGVNIKGAILNGVIKRASTAYSYGYNYYGYSYSEKE
GMQGIAFQDAYPDDLSHCYGCGRNNEQGHQLKSYWRGEQTIAHFMPKPFHTAIPGFVYGGLIASLIDCHGTGSASAAAQRALEQAGEQLDEPPRFVTAALNIDYLAPTPMGVELELVGEIKEVKPRKVVVEIALSADGKLCARGHMVAVKMPETMAATSA
MSLKDFAGRTAFVTGGANGVGIGLVRQLLNQGCKVAIADIRQDSIDKALATLEAEGSGPEVMGVQLDVASREGFKMAADEVEARFGPVSILCNNAGVNLFQPIEESSYDDWDWLLGVNLHGVVNGVTTFVPRMVERVKAGEQKGGHVVNTASMAAFLAAGSPGIYNTTKFAVRGLSESLHYSLLKYEIGVSVLCPGLVKSYIYASDDIRPDALKGEVKPVDKTAVERLAGVHEFGMEPDVIGARVIEAMKANRLHIFSHPDHKEELREVFDEIIAEYQDYPKDPGYDQRVAFEKFRADSFAEARRQSRAADEGHHHHHH
ESNDSGIVVYNAQHENLVKSWVDGFTKDTGIKVTLRNGGDSELGNQLVQEGSASPADVFLTENSPAMVLVDNAKLFAPLDAVTQAQVAQEYRPEHGRWTGIAARSTVFVYNPEKISEAELPKSIMDLAKPEWKGRWAASPSGADFQAIVSAMLELKGEKATLEWLKAMKTNFTAYKGNSTVMKAVNAGQIDGGVIYHYYRFVDQAKTGENSGKTQLHYFKHQDPGAFVSISGGGVLASSKHPKEAQEFVKWITGKSGQDILRTNNAFEYAVGVDAASNPKLVPLKDLDAPKVEPSKLNSKKVVELMTEAGLL
GPGSMVNATPDMARYCCAVIHSKLRGEKTPEPPASITNEPSPIFVSLKTLDGDLRGCIGNFSAEPLHKQLRDYAVAAAFQDNRFPSVTLAELPMLSCSVCLLHSFEKAHRWDDWEIGVHGIRIRYKNYSATYLPSVMPEQRWDHIQAIRSLMRKAGCGEEVSDAILNELDVTRYQESKSTVAFKSANLGSLPC
SQEKVSIEQQLAVESIRKFLNSKTSYDVLPVSYRLIVLDTSLLVKKSLNVLLQNSIVSAPLWDSKTSRFAGLLTTTDFINVIQYYFSNPDKFELVDKLQLDGLKDIERALGVDQLDTASIHPSRPLFEACLKMLESRSGRIPLIDQDEETHREIVVSVLTQYRILKFVALNCRETHFLKIPIGDLNIITQDNMKSCQMTTPVIDVIQMLTQGRVSSVPIIDENGYLINVYEAYDVLGLIKGGIYNDLSLSVGEALMRRSDDFEGVYTCTKNDKLSTIMDNIRKARVHRFFVVDDVGRLVGVLTLSDILKYILLGS
MMAVENAVDYPISVRLPSYVVEKIDELVKKRKFRSRSDFIKFAVTFALGQIMMEEARERAKNEPEELEKERKEAWMRLRAGDFSKEDEETLELLKKVDARYKRLGGRS
